Measured values from the supplement of paper PMC9170038.

System: MS2 coat protein
Test: apparent KD of MS2 coat protein; designed switch direction (-1 OFF switch, 1 ON switch): -1; higher = weaker reporter binding
In short: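 Each step of the titration lasted 0.8–1.5 h at the lowest concentration and 10–20 min at the highest. The protein, SNAP-549-labelled MS2 coat protein, went from 0.7 or 1.5 nM doubling to 3 µM over RNA switches transcribed on Illumina chips by stalled E. coli RNA polymerase. Normalised cluster fluorescence was curve-fitted, and the per-design median over clusters is given as apparent KD.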

[1] = Eterna round: R95, input ligand: microRNA oligo, concentration not stated
[2] = Eterna round: R95, input ligand: FMN 200 uM
[3] = Eterna round: R95, input ligand: none
[4] = input ligand: microRNA oligo, concentration not stated

## CUGCGUCGUGUUAGGAUAUCCAGCGGUGCGCGCCAGGAGAAGGAACAUGAGGAUCACCCAUGUAAACCGAUGGC [Aratte] (puzzle: Brourd's mod of Exclusion 4)
[1]
  apparent KD of MS2 coat protein: 0.011 µM

## AUUUAGCAAGUCAGAUCCUACAUGAGGAUCACCCAUGUUGUUCGUCUUAUUUGAAGACAACACAAAAGUGUUGUCUU [Omei Mir OFFv1 B5] (Eterna round: R97, puzzle: Sensor, turn-off variant 1)
Input ligand: FMN 200 uM
  apparent KD of MS2 coat protein: 0.0799 µM
Input ligand: none
  apparent KD of MS2 coat protein: 0.077 µM

## CUGUGCACGCUGCGAUCCUACAUGAGGAUCACCCAUGUGGUCUGGUGGCGUGGGUCACCGGACUUGGCUCGUCUUGU [salish99_S_TOV1_R5_079] (Eterna round: R97, puzzle: Sensor, turn-off variant 1)
Input ligand: FMN 200 uM
  apparent KD of MS2 coat protein: 0.079 µM
Input ligand: none
  apparent KD of MS2 coat protein: 0.0907 µM

## UAGCAGAGAGGAUAUACAUUCAUCACCCGCGCAACAAGCGCACAUGAGGAUCACCCAUGUAGAAGGCUCGUGCC [EX2 C.20] (Eterna round: R97, puzzle: Exclusion 2)
Input ligand: FMN 200 uM
  apparent KD of MS2 coat protein: 0.0536 µM
Input ligand: none
  apparent KD of MS2 coat protein: 0.0317 µM

## UAUAAAACAUAGGAUAUCGAAUAUAUCAUUUAACGAGAAGGAUGAACAUGAGGAUCACCCAUGUGGUAUCAUGG [Mat - Exclusion 6 - JL Mod - D8] (puzzle: Exclusion 6)
[2]
  apparent KD of MS2 coat protein: 0.286 µM
[1]
  apparent KD of MS2 coat protein: 0.262 µM
[3]
  apparent KD of MS2 coat protein: 0.172 µM

## AUGCCGCUAGGAUAUUGCAGCUGAUACAUGAGGAUCACCCAUGUGACUCGCUGGGUAGUGUAAGAAGGAGUGUGCU [Eternabot (L2) Solution 27] (Eterna round: R97, puzzle: Exclusion 5)
Input ligand: FMN 200 uM
  apparent KD of MS2 coat protein: 0.0213 µM
Input ligand: none
  apparent KD of MS2 coat protein: 0.024 µM

## GGAAAACGCUGAGGAUAUGGAAGGAAAGGAAGACCAGAAGGCAGGGUCACACAACAUGAGGAUCACCCAUGUGUGUGUAGCGGA [exng1 ex3] (Eterna round: R96, puzzle: Exclusion NG 1)
Input ligand: FMN 200 uM
  apparent KD of MS2 coat protein: 0.00975 µM
[4]
  apparent KD of MS2 coat protein: 0.0102 µM
Input ligand: none
  apparent KD of MS2 coat protein: 0.0127 µM

## AAUAAGAGAGGAUAUACUAAAAUAUGAAUAAAAUAAAUAAAACAUGAGGAUCACCCAUGUAGAAGGCUCAAUAA [JMF's Not so obvious solution 6] (puzzle: Exclusion 2)
[2]
  apparent KD of MS2 coat protein: 0.0231 µM
[1]
  apparent KD of MS2 coat protein: 0.0192 µM
[3]
  apparent KD of MS2 coat protein: 0.0247 µM

## AAAUUGCUAGAGGAUAUCGGAUAGAAUUUAUUACGAGAAGGUUAGACAUGAGGAUCACCCAUGUUCUGUUGGGA [EX6 #23] (Eterna round: R97, puzzle: Exclusion 6)
Input ligand: FMN 200 uM
  apparent KD of MS2 coat protein: 0.0701 µM
Input ligand: none
  apparent KD of MS2 coat protein: 0.0291 µM

## CUGGCUUAGAGAGGAUAUGACAUUCAAGCCUACCCUGGCCACGGGCCACAUGAGGAUCACCCAUGUCAGAAGGCUCAGGCCAGA [Enorri] (Eterna round: R96, puzzle: Exclusion NG 2)
Input ligand: FMN 200 uM
  apparent KD of MS2 coat protein: 0.0617 µM
[4]
  apparent KD of MS2 coat protein: 0.0255 µM
Input ligand: none
  apparent KD of MS2 coat protein: 0.0328 µM

## AGCAUGCUAGGAUAUACGGGACAUUAGGGUUCGUCGUAUGGACAUGAGGAUCACCCAUGUAGAAGGAGCGUGCA [Mat - Exclusion 2 - Mod of Hyphema - D93] (puzzle: Exclusion 2)
[1]
  apparent KD of MS2 coat protein: 0.0199 µM

## CUUCACCCACCAGAGCUCACCCACAUACCAGCUCUGGUGACAUGAGGAUCACCCAUGUUUUUUGCCCGUCUUAUCUU [Intibima] (puzzle: Sensor v3, turn-off variant 2)
[2]
  apparent KD of MS2 coat protein: 0.0413 µM
[1]
  apparent KD of MS2 coat protein: 0.189 µM
[3]
  apparent KD of MS2 coat protein: 0.0468 µM

## UUUUAACAUGAGGAUCACCCAUGUGAGGAUAUCGAAAUUUAUAUUAAUAUUAAUUUUUCGAGAAGGCACAUUUU [JMF 33] (puzzle: Exclusion 1)
[1]
  apparent KD of MS2 coat protein: 0.143 µM

## AAUUUACAUGAGGAUCACCCAUGUGAGGAUAUAUGUUUUAAUUUUUUUUUUUUUUUACAUAGAAGGCGCGUGAU [JR_Exc1_Sub046] (Eterna round: R97, puzzle: Exclusion 1)
Input ligand: FMN 200 uM
  apparent KD of MS2 coat protein: 0.0517 µM
Input ligand: none
  apparent KD of MS2 coat protein: 0.0585 µM

## AAUGUCUGAGGAUAUCGAAUAGUGUACAUGAGGAUCACCCAUGUUUUUAUUAGUAUAUUACGAGAAGGCAGUGGAA [JR_E5_Sub086] (puzzle: Exclusion 5)
[1]
  apparent KD of MS2 coat protein: 0.0161 µM

## UUGUUCAGAGGAUAUACAUGAGGAUCACCCAUGUGUUUCAGCUAGGAGACUAGCGAAAGUAGAAGGCUGUACUC [salish99_ex3_r4_016] (Eterna round: R97, puzzle: Exclusion 3)
Input ligand: FMN 200 uM
  apparent KD of MS2 coat protein: 0.0305 µM
Input ligand: none
  apparent KD of MS2 coat protein: 0.0256 µM

## GAGUGCUGAGGAUAUACAUGAGGAUCACCCAUGUGCUUCAGCUAGGAGACUAGCUUUGGUAGAAGGCAGUACUC [Mod of lroppy 23 - Jieux - Exclusion 3] (Eterna round: R97, puzzle: Exclusion 3)
Input ligand: FMN 200 uM
  apparent KD of MS2 coat protein: 0.0494 µM
Input ligand: none
  apparent KD of MS2 coat protein: 0.0142 µM

## AAAACACAUGAGGAUCACCCAUGUGAGGAUAUGUUCAUGUUCAGCAAACUGAACAUGAACAGAAGGCACAUAAA [JR_Exclusion1_Sub016] (puzzle: Exclusion 1)
[2]
  apparent KD of MS2 coat protein: 0.0447 µM
[1]
  apparent KD of MS2 coat protein: 0.0365 µM
[3]
  apparent KD of MS2 coat protein: 0.0404 µM

## GCUUGGCGAGGAUAUACAUGAGGAUCACCCAUGUGAGAGAAGAAAGUGAGGAAGAAAAGUAGAAGGCGCUGAGG [Mat - Exclusion 3 - Mod of Salish D61] (puzzle: Exclusion 3)
[2]
  apparent KD of MS2 coat protein: 0.372 µM
[1]
  apparent KD of MS2 coat protein: 0.0564 µM
[3]
  apparent KD of MS2 coat protein: 0.063 µM

## CUGGUCCGAGGAUAUAUUAAGUGAAACAUGAGGAUCACCCAUGUUAUUUGAUGGAAGAAAAUAGAAGGCGGACUAG [Mat - Exclusion 5 - JL mod - D59] (puzzle: Exclusion 5)
[2]
  apparent KD of MS2 coat protein: 0.0299 µM
[1]
  apparent KD of MS2 coat protein: 0.0869 µM
[3]
  apparent KD of MS2 coat protein: 0.0625 µM

## CUUCACCCACCAGAGCUCACCCACAUACCUACUCAGGUGACAUGAGGAUCACCCAUGUUUUUUGCCCGUCUUAUCUU [Vexebedi] (Eterna round: R96, puzzle: Sensor v3, turn-off variant 2)
Input ligand: FMN 200 uM
  apparent KD of MS2 coat protein: 0.0344 µM
[4]
  apparent KD of MS2 coat protein: 0.174 µM
Input ligand: none
  apparent KD of MS2 coat protein: 0.0375 µM

## GUUGUUUAUGUAGGAUAUGCCUGGCGUGCCUAUGCAGAAGGACAUGAGGAUCACCCAUGUAUUGCGGUCUGCGUUCAGAUCGCU [salish99_ExNG1_r4_020] (Eterna round: R96, puzzle: Exclusion NG 1)
Input ligand: FMN 200 uM
  apparent KD of MS2 coat protein: 0.0232 µM
[4]
  apparent KD of MS2 coat protein: 0.0158 µM
Input ligand: none
  apparent KD of MS2 coat protein: 0.022 µM

## AGUCGUAAACAAGUUUCUGACAUGAGGAUCACCCAUGUGAGACUAAAAGUAUCAGAUUGCCUAAUAAGUAGCUCGUC [Eternabot (L2) Solution 29] (Eterna round: R97, puzzle: Sensor, turn-off variant 1)
Input ligand: FMN 200 uM
  apparent KD of MS2 coat protein: 0.0206 µM
Input ligand: none
  apparent KD of MS2 coat protein: 0.0235 µM

## GUCAGGAAUGUAGGAUAUCUGCACGUGUAGUGCAGAGAAGGACAUGAGGAUCACCCAUGUAUAGUAGCUUCGGCUACACCUGAC [ENG1-A3] (Eterna round: R96, puzzle: Exclusion NG 1)
Input ligand: FMN 200 uM
  apparent KD of MS2 coat protein: 0.018 µM
[4]
  apparent KD of MS2 coat protein: 0.00993 µM
Input ligand: none
  apparent KD of MS2 coat protein: 0.0181 µM

## AAUAAUAAGGAGGAUAUCGUAUCGGAAACGAUACGAGAAGGCUUAACAUGAGGAUCACCCAUGUUCCUCAAUAA [Fiskers Ex 6 - 22] (puzzle: Exclusion 6)
[1]
  apparent KD of MS2 coat protein: 0.0335 µM

## UCGGCGCGAGGAUAUACGGUUGCUUUUUAGGGUCGUGGCGUACAUGAGGAUCACCCAUGUAGAAGGCGCGCCGC [Apr-15 SS2-30] (puzzle: Exclusion 2)
[1]
  apparent KD of MS2 coat protein: 0.0138 µM

## AGUACUAUCACGAAAGUGAUAGUACAAAUAGCAAGUGAAACAUGAGGAUCACCCAUGUCCUCAUUUGCUCGUCUUAU [Mat - Sensor v2 -ver2- JL mod - D65] (Eterna round: R96, puzzle: Sensor v2, turn-off variant 2)
Input ligand: FMN 200 uM
  apparent KD of MS2 coat protein: 0.0121 µM
[4]
  apparent KD of MS2 coat protein: 0.409 µM
Input ligand: none
  apparent KD of MS2 coat protein: 0.0143 µM

## GAAUGAGAGCAGGAUAUCUUAUAAAUGUAUGGAAGAGAAGGGCUCACAUGAGGAUCACCCAUGUGGUCCUAGAU [jl-ex6-4.70 jandersonlee mod] (Eterna round: R97, puzzle: Exclusion 6)
Input ligand: FMN 200 uM
  apparent KD of MS2 coat protein: 0.215 µM
Input ligand: none
  apparent KD of MS2 coat protein: 0.0365 µM

## GAAAAGGUAGGAUAUACGAAAAAAAAGGGUAGAAAGAAAACACAUGAGGAUCACCCAUGUAGAAGGACCAAAAG [salish99_ex2_r3_017] (puzzle: Exclusion 2)
[2]
  apparent KD of MS2 coat protein: 0.0661 µM
[1]
  apparent KD of MS2 coat protein: 0.0273 µM
[3]
  apparent KD of MS2 coat protein: 0.0207 µM

## UAUUGUUUUUUUUUAAAUUACAUGAGGAUCACCCAUGUUUUUUUUUUUUUGGUGAUUAUUUUUUGUCUUUUUUUUUU [Jieuxbot 037 - Jieux - Sensor v2, turn-off variant] (Eterna round: R96, puzzle: Sensor v2, turn-off variant)
Input ligand: FMN 200 uM
  apparent KD of MS2 coat protein: 0.0585 µM
[4]
  apparent KD of MS2 coat protein: 0.069 µM
Input ligand: none
  apparent KD of MS2 coat protein: 0.0433 µM

## UAUUCUAGAUAGGAUAUACUUUUUUUUUUUUUCGUAGAAGGAUCUACAUGAGGAUCACCCAUGUUUUCAGCAGU [JR_E6_Sub012] (Eterna round: R96, puzzle: Exclusion 6)
Input ligand: FMN 200 uM
  apparent KD of MS2 coat protein: 0.0996 µM
[4]
  apparent KD of MS2 coat protein: 0.0657 µM
Input ligand: none
  apparent KD of MS2 coat protein: 0.0711 µM

## AAGAAGAAGUAAGGAUAUGAAGAUUUGGUGAUAACAUGAGGAUCACCCAUGUGAAAACAAUAAAAUCAGAAGGUAUAAGAAGAA [AK ExNG2-2] (Eterna round: R96, puzzle: Exclusion NG 2)
Input ligand: FMN 200 uM
  apparent KD of MS2 coat protein: 0.0576 µM
[4]
  apparent KD of MS2 coat protein: 0.0373 µM
Input ligand: none
  apparent KD of MS2 coat protein: 0.058 µM

## CCCGAGGAAGGAUAUACAUGAGGAUCACCCAUGUGCGUUGGGACUGGCGUGGUCUUCAGUAGAAGGUCCGCGCC [Esdiza] (Eterna round: R97, puzzle: Exclusion 3)
Input ligand: FMN 200 uM
  apparent KD of MS2 coat protein: 0.0487 µM
Input ligand: none
  apparent KD of MS2 coat protein: 0.0338 µM

## UCAAGUAUGUAGGAUAUCGAUGUCUACGGACAUCGAGAAGGACGUACAUGAGGAUCACCCAUGUAACUUGCAUG [Exclusion 6 - B - 10:d] (puzzle: Exclusion 6)
[2]
  apparent KD of MS2 coat protein: 0.0372 µM
[1]
  apparent KD of MS2 coat protein: 0.0794 µM
[3]
  apparent KD of MS2 coat protein: 0.108 µM
